T1: Human β-Klotho (human, UniProt Q86Z14 1-996)
T1 construct: human β-Klotho, recombinant protein bought from R&D Systems; source: bought: R&D Systems (cat# 5889-KB-050)
T1 sequence (looked up): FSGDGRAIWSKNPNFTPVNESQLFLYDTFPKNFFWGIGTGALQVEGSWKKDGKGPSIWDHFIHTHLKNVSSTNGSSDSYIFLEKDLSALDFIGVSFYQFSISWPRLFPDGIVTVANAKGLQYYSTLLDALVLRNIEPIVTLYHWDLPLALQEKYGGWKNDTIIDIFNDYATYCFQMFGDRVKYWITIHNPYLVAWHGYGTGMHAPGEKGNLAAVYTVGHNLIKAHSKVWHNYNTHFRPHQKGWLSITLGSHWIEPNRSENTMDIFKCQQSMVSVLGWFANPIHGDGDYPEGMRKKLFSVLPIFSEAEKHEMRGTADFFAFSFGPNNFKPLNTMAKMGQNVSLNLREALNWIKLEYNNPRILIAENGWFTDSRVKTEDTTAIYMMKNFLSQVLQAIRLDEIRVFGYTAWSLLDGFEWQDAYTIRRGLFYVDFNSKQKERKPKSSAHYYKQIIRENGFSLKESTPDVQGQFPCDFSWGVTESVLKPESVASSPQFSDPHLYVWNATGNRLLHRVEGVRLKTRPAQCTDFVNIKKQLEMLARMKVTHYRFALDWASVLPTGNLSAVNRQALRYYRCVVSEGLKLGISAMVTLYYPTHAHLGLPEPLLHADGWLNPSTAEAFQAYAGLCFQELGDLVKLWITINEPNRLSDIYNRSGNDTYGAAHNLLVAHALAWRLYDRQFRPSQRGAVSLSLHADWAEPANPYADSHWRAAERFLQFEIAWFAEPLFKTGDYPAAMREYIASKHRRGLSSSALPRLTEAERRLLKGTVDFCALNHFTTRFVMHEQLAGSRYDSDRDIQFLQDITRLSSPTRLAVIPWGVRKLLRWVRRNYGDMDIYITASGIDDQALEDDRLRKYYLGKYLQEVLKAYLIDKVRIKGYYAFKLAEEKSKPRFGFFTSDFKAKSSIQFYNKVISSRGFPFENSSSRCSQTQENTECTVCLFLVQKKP


Legend:
[1] = target: T1, Human β-Klotho; assay: SPR; Biacore 8K; FGF21s covalently immobilised on CM5 chip by amine coupling (about 700-900 RU); human β-Klotho injected as 2.5-fold series 250 to 1.024 nM at 30 μl/min; 25 °C; HBS-EP+ (10 mM HEPES pH 7.4, 150 mM NaCl, 3 mM EDTA, 0.05% polysorbate 20); global fit, 1:1 Langmuir model; settings: both partners purified
[2] = target: T1, Human β-Klotho; assay: cell-based or functional assay

Binder | Kd [1] [nM] | koff [1] [s⁻¹] | kon [1] [M⁻¹ s⁻¹] | EC50 of FGFR1c/β-Klotho activation, luciferase reporter in modified HEK293 cells, 6 h [2] [ng/mL]
wild type human FGF21 purified through heat treatment (htFGF21) (ligand, UniProt Q9NSA1 33-209, looked up, human fibroblast growth factor 21 (FGF21), residues 33-209; The TEV site ENLYFQ/G stood between Trx and FGF21, so a Gly probably remains before residue 33 after cleavage (surmised); also called htWT; wild type htFGF21; not shown: Trx, N-terminal, cleaved) DSSPLLQFGGQVRQRYLYTDDAQQTEAHLEIREDGTVGGAADQSPESLLQLKALKPGVIQILGVKTSRFLCQRPDGALYGSLHFDPEACSFRELLLEDGYNVYQSEAHGLPLHLPGNKSPHRDPAPRGPARFLPLPGLPPALPEPPGILAPQPPDVGSSDPLSMVGPSQGRSPSYAS | 12.9 | 0.00155 | 121000 | 2.74
htFGF21 variant with S195G, P199G, and S200G mutations (htM3) (ligand, human, UniProt Q9NSA1 33-209, looked up, human FGF21 with S195G, P199G and S200G; A Gly from the TEV site probably remains at the N-terminus (surmised); not shown: Trx, N-terminal, cleaved) DSSPLLQFGGQVRQRYLYTDDAQQTEAHLEIREDGTVGGAADQSPESLLQLKALKPGVIQILGVKTSRFLCQRPDGALYGSLHFDPEACSFRELLLEDGYNVYQSEAHGLPLHLPGNKSPHRDPAPRGPARFLPLPGLPPALPEPPGILAPQPPDVGSSDPLGMVGGGQGRSPSYAS | 5.19 | 0.000785 | 152000 | 0.75
htFGF21 variant with Q201H and A208T mutations (htM2) (ligand, human, UniProt Q9NSA1 33-209, looked up, human FGF21 with Q201H and A208T; A Gly from the TEV site probably remains at the N-terminus (surmised); not shown: Trx, N-terminal, cleaved) DSSPLLQFGGQVRQRYLYTDDAQQTEAHLEIREDGTVGGAADQSPESLLQLKALKPGVIQILGVKTSRFLCQRPDGALYGSLHFDPEACSFRELLLEDGYNVYQSEAHGLPLHLPGNKSPHRDPAPRGPARFLPLPGLPPALPEPPGILAPQPPDVGSSDPLSMVGPSHGRSPSYTS | 10.9 | 0.0013 | 120000 | 1.37

Continued by falling Kd [1], values first:

Kd [1] [nM] | koff [1] [s⁻¹] | kon [1] [M⁻¹ s⁻¹] | EC50 of FGFR1c/β-Klotho activation, luciferase reporter in modified HEK293 cells, 6 h [2] [ng/mL] | Binder
12.8 | 0.00159 | 126000 |  | wild type human FGF21 purified without heating (nFGF21) (ligand, UniProt Q9NSA1 33-209, looked up, human fibroblast growth factor 21 (FGF21), residues 33-209; differs only in that the 100 °C step was left out of the purification; The TEV site ENLYFQ/G stood between Trx and FGF21, so a Gly probably remains before residue 33 after cleavage (surmised); also called fibroblast growth factor 21; wild type FGF21; source: E. coli Rosetta (DE3), purified without heating; not shown: Trx, N-terminal, …) DSSPLLQFGGQVRQRYLYTDDAQQTEAHLEIREDGTVGGAADQSPESLLQLKALKPGVIQILGVKTSRFLCQRPDGALYGSLHFDPEACSFRELLLEDGYNVYQSEAHGLPLHLPGNKSPHRDPAPRGPARFLPLPGLPPALPEPPGILAPQPPDVGSSDPLSMVGPSQGRSPSYAS
4.32 | 0.000707 | 164000 | 0.52 | htFGF21 variant with S195G, P199G, S200G, Q201H, and A208T mutations (htM5) (ligand, human, UniProt Q9NSA1 33-209, looked up, human FGF21 with S195G, P199G, S200G, Q201H and A208T; A Gly from the TEV site probably remains at the N-terminus (surmised); also called M5 variant; not shown: Trx, N-terminal, cleaved) DSSPLLQFGGQVRQRYLYTDDAQQTEAHLEIREDGTVGGAADQSPESLLQLKALKPGVIQILGVKTSRFLCQRPDGALYGSLHFDPEACSFRELLLEDGYNVYQSEAHGLPLHLPGNKSPHRDPAPRGPARFLPLPGLPPALPEPPGILAPQPPDVGSSDPLGMVGGGHGRSPSYTS

— paper PMC9849446, “Heating-mediated purification of active FGF21 and structure-based design of its variant with enhanced potency” (Scientific Reports, 2023)
